Experimental data from patent publication US20140018297A1 (Novo Nordisk, published 2014).

Tests used:
[1] = target: T1, FVIII (N8, turoctocog alfa), B domain truncated FVIII (human, UniProt P00451 20-2351); experiment: Isothermal titration calorimetry at 20 °C, VWF fragment in the syringe titrated into FVIII (turoctocog alfa) in the cell, single-site fit; 50 mM Hepes pH 7.4, 150 mM NaCl, 10 mM CaCl2
T1 construct: also called F8; F8-500
T1 sequence: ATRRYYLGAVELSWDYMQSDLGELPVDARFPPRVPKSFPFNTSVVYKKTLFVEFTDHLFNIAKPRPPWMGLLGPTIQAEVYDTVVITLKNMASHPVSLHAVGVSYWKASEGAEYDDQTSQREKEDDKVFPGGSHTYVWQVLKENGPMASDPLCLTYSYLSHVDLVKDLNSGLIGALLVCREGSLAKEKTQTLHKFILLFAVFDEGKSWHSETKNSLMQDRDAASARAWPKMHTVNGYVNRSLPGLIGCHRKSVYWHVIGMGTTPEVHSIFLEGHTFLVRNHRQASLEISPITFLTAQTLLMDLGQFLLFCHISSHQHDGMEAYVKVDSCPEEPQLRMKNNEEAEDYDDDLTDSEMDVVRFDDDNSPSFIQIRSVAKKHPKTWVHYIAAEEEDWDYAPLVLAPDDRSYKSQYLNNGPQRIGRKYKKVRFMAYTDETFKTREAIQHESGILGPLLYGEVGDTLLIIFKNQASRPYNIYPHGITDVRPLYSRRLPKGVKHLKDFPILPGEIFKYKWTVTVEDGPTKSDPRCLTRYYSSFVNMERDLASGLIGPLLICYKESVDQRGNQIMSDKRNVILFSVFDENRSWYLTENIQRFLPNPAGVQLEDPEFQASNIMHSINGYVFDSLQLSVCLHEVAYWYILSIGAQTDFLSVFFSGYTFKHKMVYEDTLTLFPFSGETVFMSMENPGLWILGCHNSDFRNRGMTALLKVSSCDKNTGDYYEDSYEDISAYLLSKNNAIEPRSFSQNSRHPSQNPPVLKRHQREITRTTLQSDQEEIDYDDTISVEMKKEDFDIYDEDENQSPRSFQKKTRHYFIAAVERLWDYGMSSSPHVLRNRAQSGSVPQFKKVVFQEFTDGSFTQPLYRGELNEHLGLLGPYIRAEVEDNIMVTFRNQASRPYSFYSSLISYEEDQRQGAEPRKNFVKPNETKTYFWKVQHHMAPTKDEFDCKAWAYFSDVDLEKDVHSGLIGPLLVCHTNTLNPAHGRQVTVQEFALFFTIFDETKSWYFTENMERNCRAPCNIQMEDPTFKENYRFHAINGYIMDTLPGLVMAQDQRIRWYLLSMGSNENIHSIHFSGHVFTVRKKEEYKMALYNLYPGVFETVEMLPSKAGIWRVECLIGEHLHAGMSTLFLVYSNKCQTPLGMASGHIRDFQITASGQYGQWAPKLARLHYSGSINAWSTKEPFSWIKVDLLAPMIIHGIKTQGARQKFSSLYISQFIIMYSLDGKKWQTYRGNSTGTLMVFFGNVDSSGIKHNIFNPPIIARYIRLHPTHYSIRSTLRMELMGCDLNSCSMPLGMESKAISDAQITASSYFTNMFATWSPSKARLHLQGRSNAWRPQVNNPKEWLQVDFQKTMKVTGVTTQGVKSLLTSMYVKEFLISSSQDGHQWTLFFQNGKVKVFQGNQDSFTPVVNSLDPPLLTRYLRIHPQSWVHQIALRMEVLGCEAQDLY
Protocol: (§1) All protein samples are dialyzed in 50 mM Hepes pH 7.4, 150 mM NaCl, 10 mM CaCl₂ buffer. Each iTC experiment involves filling the iTC cell with FVIII (approximately 250 μL) and the syringe with VWF variants (approximately 40 μL). Temperature is set as required and the protein sample is allowed to equilibrate under given experimental conditions (approximately 10 minutes). Typically 17-20 injections (of 2-2.5 μL) of VWF variants into cell, containing FVIII, are performed. The first injection is always of 0.2 μL and is discarded from the final data analysis in order to account for diffusion during equilibration step. Stirring speed is set between 700-1000 rpm. Filter period for data collection is 5 sec with a high feedback mode setting. Each titration is spaced by 120 sec. Appropriate control experiments are performed. Raw data is processed to set baseline and integrated to obtain a final isotherm. This binding isotherm is fit to a single-site model to yield Kd, stoichiometry (n), ΔH, and ΔS values to complete characterization of VWF variant binding to FVIII.

[2] = target: T2, FVIII (as used in the competition ELISA of Example 21; form not stated) (UniProt P00451 20-2351, limits assumed); experiment: competition ELISA; competitor coated human VWF; FVIII 1 nM pre-incubated with the fragment
T2 sequence (looked up): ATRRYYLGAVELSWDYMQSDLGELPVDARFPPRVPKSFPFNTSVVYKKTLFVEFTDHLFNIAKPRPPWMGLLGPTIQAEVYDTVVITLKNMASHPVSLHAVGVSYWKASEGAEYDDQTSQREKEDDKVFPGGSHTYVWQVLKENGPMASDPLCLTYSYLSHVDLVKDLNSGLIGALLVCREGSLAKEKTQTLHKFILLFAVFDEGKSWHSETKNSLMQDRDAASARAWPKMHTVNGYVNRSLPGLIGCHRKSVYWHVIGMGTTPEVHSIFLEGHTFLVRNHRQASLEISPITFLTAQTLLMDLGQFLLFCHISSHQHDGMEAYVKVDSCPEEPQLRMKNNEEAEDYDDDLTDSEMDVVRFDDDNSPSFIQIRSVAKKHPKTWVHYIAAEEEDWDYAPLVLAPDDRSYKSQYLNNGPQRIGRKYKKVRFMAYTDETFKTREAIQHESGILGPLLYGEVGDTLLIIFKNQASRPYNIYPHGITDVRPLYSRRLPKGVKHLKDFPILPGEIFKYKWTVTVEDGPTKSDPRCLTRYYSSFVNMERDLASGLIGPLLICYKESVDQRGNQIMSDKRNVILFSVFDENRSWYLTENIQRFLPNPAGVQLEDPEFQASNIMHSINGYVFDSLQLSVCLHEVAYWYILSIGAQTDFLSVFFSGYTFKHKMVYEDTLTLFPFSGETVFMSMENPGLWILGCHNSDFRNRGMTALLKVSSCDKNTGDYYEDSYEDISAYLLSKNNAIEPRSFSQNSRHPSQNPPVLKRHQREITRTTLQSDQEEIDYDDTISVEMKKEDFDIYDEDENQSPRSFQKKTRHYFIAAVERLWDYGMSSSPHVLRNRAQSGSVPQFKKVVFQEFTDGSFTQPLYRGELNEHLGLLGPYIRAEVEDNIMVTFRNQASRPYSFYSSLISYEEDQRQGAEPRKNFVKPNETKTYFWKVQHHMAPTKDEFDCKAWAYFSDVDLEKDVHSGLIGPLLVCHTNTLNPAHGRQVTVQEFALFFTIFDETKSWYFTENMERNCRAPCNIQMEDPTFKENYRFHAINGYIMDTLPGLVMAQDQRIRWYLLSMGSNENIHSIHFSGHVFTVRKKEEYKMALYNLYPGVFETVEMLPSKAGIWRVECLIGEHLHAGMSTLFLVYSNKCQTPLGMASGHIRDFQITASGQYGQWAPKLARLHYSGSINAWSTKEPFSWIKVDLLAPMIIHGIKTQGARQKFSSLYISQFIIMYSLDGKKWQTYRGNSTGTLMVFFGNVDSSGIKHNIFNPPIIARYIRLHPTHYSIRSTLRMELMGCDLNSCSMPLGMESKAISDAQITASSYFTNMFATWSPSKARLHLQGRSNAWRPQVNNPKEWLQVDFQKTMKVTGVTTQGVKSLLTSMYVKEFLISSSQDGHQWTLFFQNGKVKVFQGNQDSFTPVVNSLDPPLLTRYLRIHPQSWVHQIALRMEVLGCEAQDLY
Protocol: In order to investigate the binding of the different VWF fragments to FVIII the following method is used. Briefly, human VWF is coated in a microtiterplate and incubated overnight at 4° C. After blocking, a solution with pre-incubated FVIII (1 nM) and VWF/VWF-fragment is added to the plate, followed by detection with biotinylated anti FVIII antibody and streptavidin-peroxidase S-POD (1:20000). The absorbance is measured at 450/620 nm.

[3] = target: T1, FVIII (N8, turoctocog alfa), B domain …; experiment: isothermal titration calorimetry at 20° C., VWF variant injected into FVIII
Protocol: as §1

[4] = target: T1, FVIII (N8, turoctocog alfa), B domain …; experiment: isothermal titration calorimetry at 20° C., VWF variant injected into FVIII; ITC at 20° C.
Protocol: as §1

B1: VWF(764-865)-ALA-HPC4 monomer (other)
chain: SLSCRPPMVKLVCPADNLRAEGLECTKTCQNYDLECMSMGCVSGCLCPPGMVRHENRCVALERCPCFHQGKEYAPGETVKIGCNTCVCQDRKWNCTDHVCDAALAEDQVDPRLIDGK
notes: also called TIL′E′
With B1 the Ka [1] was 3.02e+06 M⁻¹, the IC50 [2] was 2000 nM and the stoichiometry [3] was 1.14. The ΔH [3] was -5.82 kcal/mol, the ΔS [3] was 9.8 cal/mol/deg and the Kd [4] was 330 nM.

B2: VWF(764-1045)-ALA-HPC4 monomer (other)
chain: SLSCRPPMVKLVCPADNLRAEGLECTKTCQNYDLECMSMGCVSGCLCPPGMVRHENRCVALERCPCFHQGKEYAPGETVKIGCNTCVCQDRKWNCTDHVCDATCSTIGMAHYLTFDGLKYLFPGECQYVLVQDYCGSNPGTFRILVGNKGCSHPSVKCKKRVTILVEGGEIELFDGEVNVKRPMKDETHFEVVESGRYIILLLGKALSVVWDRHLSISVVLKQTYQEKVCGLCGNFDGIQNNDLTSSNLQVEEDPVDFGNSWKVSSQCADTRKVPLDSSPATALAEDQVDPRLIDGK
notes: also called TIL′/E′/VWD3 III
B2 showed an IC50 [2] of 2000 nM.

B3: VWF(764-1198)-C1099/1142S-ALA-HPC4 monomer (other)
chain: SLSCRPPMVKLVCPADNLRAEGLECTKTCQNYDLECMSMGCVSGCLCPPGMVRHENRCVALERCPCFHQGKEYAPGETVKIGCNTCVCQDRKWNCTDHVCDATCSTIGMAHYLTFDGLKYLFPGECQYVLVQDYCGSNPGTFRILVGNKGCSHPSVKCKKRVTILVEGGEIELFDGEVNVKRPMKDETHFEVVESGRYIILLLGKALSVVWDRHLSISVVLKQTYQEKVCGLCGNFDGIQNNDLTSSNLQVEEDPVDFGNSWKVSSQCADTRKVPLDSSPATCHNNIMKQTMVDSSCRILTSDVFQDCNKLVDPEPYLDVCIYDTCSCESIGDCASFCDTIAAYAHVCAQHGKVVTWRTATLCPQSCEERNLRENGYESEWRYNSCAPACQVTCQHPEPLACPVQCVEGCHAHCPPGKILDELLQTCVDPEDCPVALAEDQVDPRLIDGK
notes: also called 0003; TIL′/E′/VWD3/C8-3/TIL-3
Work on B3 yielded an IC50 [2] of 28 nM.
